From publication PMC3884069 (Cellular and molecular life sciences : CMLS, 2012)

Tests used:
[1] = biological target: HLA-G6 (soluble HLA-G isoform, α1–α3 domains) (human) (UniProt P17693); test: non-reducing SDS-PAGE and western blot
[2] = biological target: the molecule itself; test: non-reducing SDS-PAGE and western blot

Row | stoichiometry N [1] | Molecule | stoichiometry N [2]
1 | 2 | HLA-G6 (soluble HLA-G isoform, α1–α3 domains) (from UniProt P17693-6 25-227) (natural protein) | –
2 | – | HLA-G4 (membrane-bound HLA-G isoform, α1–α2 domains) (natural protein, human, UniProt P17693-4 25-246, looked up) MHC heavy: GSHSMRYFSAAVSRPGRGEPRFIAMGYVDDTQFVRFDSDSACPRMEPRAPWVEQEGPEYWEEETRNTKAHAQTDRMNLQTLRGYYNQSEASSHTLQWMIGCDLGSDGRLLRGYEQYAYDGKDYLALNEDLRSWTAADTAAQISKRKCEAANVAEQRRAYLEGTCVEWLHRYLENGKEMLQRAKQSSLPTIPIMGIVAGLVVLAAVVTGAAVAAVLWRKKSSD | 2
3 | – | HLA-G2 (membrane-bound HLA-G isoform, α1–α3 domains) (natural protein, human, UniProt P17693-2 25-246, looked up) MHC heavy: GSHSMRYFSAAVSRPGRGEPRFIAMGYVDDTQFVRFDSDSACPRMEPRAPWVEQEGPEYWEEETRNTKAHAQTDRMNLQTLRGYYNQSEANPPKTHVTHHPVFDYEATLRCWALGFYPAEIILTWQRDGEDQTQDVELVETRPAGDGTFQKWAAVVVPSGEEQRYTCHVQHEGLPEPLMLRWKQSSLPTIPIMGIVAGLVVLAAVVTGAAVAAVLWRKKSSD | 2
